In paper doi:10.1101/2020.07.01.182063 one finds Kd data, which are given here for 1 substance.

Assay in all cases: fluorescence polarisation
In general terms: Polarisation of emitted light reports the rotation of a fluorescent probe.

Experiment [1] deals with HIM-3 closure motif peptide, unmodified (wild type) (C. elegans).
In experiment [2] the target is HIM-3 closure motif peptide phosphorylated at Tyr279 (C. elegans).
Experiment [3] concerns the target HIM-3 closure motif peptide with the S282A substitution (C. elegans).

In the case of “HTP-2 protein (full length) (natural protein)”, the figures for the dissociation constant Kd in experiment [1], in experiment [2] and in experiment [3] were 5.8 µM, 16.1 µM and 11.3 µM, respectively.
